In patent US20250042970A1 (AURINIA PHARMACEUTICALS, published 2025):

How the values were obtained:
[1] = target: human BAFF (Acros Biosystems) (human, UniProt Q9Y275 134-285); assay: cell-based or functional assay
[2] = target: T1, human APRIL (Acros Biosystems) (human, UniProt O75888 115-250, limits assumed); assay: cell-based or functional assay
T1 sequence: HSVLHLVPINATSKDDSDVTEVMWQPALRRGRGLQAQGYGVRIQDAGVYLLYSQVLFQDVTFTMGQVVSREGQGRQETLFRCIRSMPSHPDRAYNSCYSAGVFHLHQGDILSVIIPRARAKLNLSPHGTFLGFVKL

[3] = target: human BAFF-60mer (Adipogen) (human, UniProt Q9Y275 134-285); assay: cell-based or functional assay
[4] = target: T2, human BAFF (Examples 21-23) (human, UniProt Q9Y275 134-285); assay: assay not given (Example 21)
T2 construct: also called huBAFF

[5] = target: T3, human APRIL (Examples 21-23) (human, UniProt O75888 105-250); assay: assay not given (Example 21)
T3 construct: also called huAPRIL
T3 sequence: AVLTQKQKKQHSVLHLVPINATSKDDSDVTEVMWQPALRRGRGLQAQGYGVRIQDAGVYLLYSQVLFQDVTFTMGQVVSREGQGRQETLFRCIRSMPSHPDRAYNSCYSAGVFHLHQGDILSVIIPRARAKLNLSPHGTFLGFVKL

[6] = target: T2, human BAFF (Examples 21-23); assay: assay not given (Example 21); remark: listed apart in the source
[7] = target: T3, human APRIL (Examples 21-23); assay: assay not given (Example 21); remark: listed apart in the source
[8] = target: T2, human BAFF (Examples 21-23); assay: SPR (Carterra LSA, HC30M chip)
Protocol: (§1) The KD of a BAv9-1 CRD-IgG4 Fc fusion protein, and other BAFF or APRIL binding molecules, the BAFF/APRIL binding molecule Atacicept and a different recombinant TACI-Fc fusion protein RC18 (also known as Telitacicept), to human or murine BAFF or human or murine APRIL were determined by surface plasmon resonance (Carterra LSA, HC30M sensor chip).

[9] = target: T3, human APRIL (Examples 21-23); assay: SPR (Carterra LSA, HC30M chip)
Protocol: as §1

[10] = target: T4, murine BAFF (Examples 22-23) (mouse, UniProt Q9WU72 127-309); assay: SPR (Carterra LSA, HC30M chip)
Protocol: as §1

[11] = target: T3, human APRIL (Examples 21-23); assay: colorimetric ELISA, inhibition curves
From the text: (§2) A colorimetric ELISA was used to assess the binding of BAFF/APRIL binding molecules to human and murine BAFF and APRIL. Inhibition curves based on binding to soluble human and murine BAFF and APRIL were used to determine the IC₅₀ values for binding of the exemplary BCMA CRD variant-IgG4 fusion protein BAv9-1 CRD-IgG4 Fc, Atacicept and a different recombinant TACI-Fc fusion protein RC18 (also known as Telitacicept).
(§3) FIG. 34A and FIG. 34B show the inhibition curves of the three different BAFF/APRIL binding molecules to murine BAFF (FIG. 34A) and murine APRIL (FIG. 34B). Compared to the IC₅₀ values determined for Atacicept and RC18 (Telitacicept), the IC₅₀ of the exemplary BCMA CRD variant-IgG4 fusion protein BAv9-1 CRD-IgG4 Fc was orders of magnitude lower for both murine BAFF and murine APRIL. The IC₅₀ values for BAv9-1 CRD-IgG4 Fc for murine BAFF and murine APRIL were 1.5 nM and 2.7 nM respectively.

[12] = target: T4, murine BAFF (Examples 22-23); assay: colorimetric ELISA, inhibition curves
From the text: as §2, §3

[13] = target: T5, murine APRIL (Examples 22-23) (mouse, UniProt Q9D777 96-241); assay: colorimetric ELISA, inhibition curves
T5 sequence (looked up): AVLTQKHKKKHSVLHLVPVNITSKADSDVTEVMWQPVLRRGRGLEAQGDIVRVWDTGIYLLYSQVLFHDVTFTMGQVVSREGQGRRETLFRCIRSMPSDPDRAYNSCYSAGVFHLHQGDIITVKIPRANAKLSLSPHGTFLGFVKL
From the text: as §2, §3

[14] = target: T5, murine APRIL (Examples 22-23); assay: SPR (Carterra LSA, HC30M chip); murine ligand (Table 13)
Protocol: as §1

[15] = target: T2, human BAFF (Examples 21-23); assay: ratio of KD values of Table 11, assay not stated (Example 21); reference Atacicept
[16] = target: T3, human APRIL (Examples 21-23); assay: as above

T4 sequence (Q9WU72 127-309 limits assumed): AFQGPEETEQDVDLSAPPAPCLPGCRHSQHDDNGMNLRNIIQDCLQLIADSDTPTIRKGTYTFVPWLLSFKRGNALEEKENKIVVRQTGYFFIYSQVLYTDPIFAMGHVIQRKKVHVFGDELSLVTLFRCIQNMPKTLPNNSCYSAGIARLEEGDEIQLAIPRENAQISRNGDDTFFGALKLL

B1: BAv9-1 CRD-IgG4 Fc (Fc fusion)
chain: AGQCSQNEYFDHLIRACIPCQLRCSSNTPPLTCQRYCNAGVTNSVGGGGSAESKYGPPCPPCPAPEAAGGPSVFLFPPKPKDTLMISRTPEVTCVVVDVSQEDPEVQFNWYVDGVEVHNAKTKPREEQFNSTYRVVSVLTVLHQDWLNGKEYKCKVSNKGLPSSIEKTISKAKGQPREPQVYTLPPSQEEMTKNQVSLTCLVKGFYPSDIAVEWESNGQPENNYKTTPPVLDSDGSFFLYSRLTVDKSRWQEGNVFSCSVMHEALHNHYTQKSLSLSPGK
notes: mature expressed protein; also called BAv9-1 CRD-Ig Fc; exemplary BCMA CRD variant-IgG4 fusion protein
IC50 for proliferation of stimulated B cells, Donor 1, BAFF + anti-IgM [1]: 311 pM | IC50 for proliferation of stimulated B cells, Donor 2, BAFF + anti-IgM [1]: 0.215 pM | IC50 for proliferation of stimulated B cells, Donor 3, BAFF + anti-IgM [1]: 20.1 pM | IC50 for proliferation of stimulated B cells, Donor 1, APRIL + anti-IgM [2]: 662 pM | IC50 for proliferation of stimulated B cells, Donor 2, APRIL + anti-IgM [2]: 226 pM | IC50 for proliferation of stimulated B cells, Donor 3, APRIL + anti-IgM [2]: 366 pM | IC50 for proliferation of stimulated B cells, Donor 1, BAFF-60mer + anti-IgM [3]: 835 pM | IC50 for proliferation of stimulated B cells, Donor 2, BAFF-60mer + anti-IgM [3]: 577 pM | IC50 for proliferation of stimulated B cells, Donor 3, BAFF-60mer + anti-IgM [3]: 610 pM | fold higher binding affinity vs Atacicept [4]: 600 to 800 fold | fold higher binding affinity vs Atacicept [5]: 600 to 800 fold | Kd [6]: 0.24 pM | Kd [7]: 0.15 pM | Kd [8]: 117 pM | Kd [9]: 25 pM | Kd [10]: 31 pM | IC50 [11]: 2 pM | IC50 [12]: 1500 pM | IC50 [13]: 2700 pM | Kd [14]: 0.15 pM | fold higher binding affinity compared to Atacicept [15]: 600 to 800 fold | fold higher binding affinity compared to Atacicept [16]: 600 to 800 fold
